Experimental data taken from PMC7026407, “Multiple Growth Factor Targeting by Engineered Insulin-like Growth Factor Binding Protein-3 Augments EGF Receptor Tyrosine Kinase Inhibitor Efficacy” (Scientific Reports, 2020).

Assays:
IGFBP-3 = molecular target: T1, IGFBP-3 (UniProt P17936 28-291); test: SPR; IGF binding protein or Fc fusion amine-coupled to a CM4 chip, growth factor as analyte; Biacore T100 or T200, HBS-P, BSA (0.2 mg/ml) or NaCl (0.65 M final) to reduce non-specific binding, 25 °C; 1:1 binding analysis; conditions: both partners purified
T1 construct: source: bought (commercially available, carrier-free)

IGFBP-7 = molecular target: T2, IGFBP-7 (UniProt Q16270 27-282); test: as above; conditions: both partners purified
T2 construct: source: bought (commercially available, carrier-free)
T2 sequence (looked up): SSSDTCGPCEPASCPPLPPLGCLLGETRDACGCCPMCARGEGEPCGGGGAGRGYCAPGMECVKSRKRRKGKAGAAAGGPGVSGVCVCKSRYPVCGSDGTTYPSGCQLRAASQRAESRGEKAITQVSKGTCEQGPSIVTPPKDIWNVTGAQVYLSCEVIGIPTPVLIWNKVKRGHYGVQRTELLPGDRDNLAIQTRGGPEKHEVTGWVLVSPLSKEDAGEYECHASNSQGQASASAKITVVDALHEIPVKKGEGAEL

56662 [1] = molecular target: T3, 56662 (UniProt P17936-1 28-291); test: as above; conditions: both partners purified
T3 construct: the secretory signal peptide was derived from IGFBP-2; Fc portion of IgG1 added to the C terminus of IGFBP-3; called an Fc dimer; Probably the mature IGFBP-3 after removal of the IGFBP-2 signal peptide; also called IGFBP-3-Fc; BP3-Fc (unmodified IGFBP-3 Fc construct); source: 293 T cells, transfected; conditioned medium purified by proteinA Sepharose; not shown: Fc (IgG1), C-terminal, kept

Chimera A [2] = molecular target: T4, Chimera A; test: as above; conditions: both partners purified
T4 construct: signal peptide derived from IGFBP-2; VEGF receptor 1 domain 2, first part of VEGF-trap; VEGF receptor 2 domain 3, second part of VEGF-trap; VEGF-trap inserted between the IGFBP-3 and the Fc domain; also called chA; BP3-VEGF-trap-Fc; source: 293 T cells, transfected; conditioned medium purified by proteinA Sepharose; not shown: Fc (IgG1), C-terminal, kept

56662 [3] = molecular target: T3, 56662; test: SPR; growth factor immobilised on a CM4 chip instead of the binding protein (asterisk in Table 1), binding protein or Fc fusion as analyte; HBS-P, 25 °C; regeneration with 4 M MgCl2 then 5 M guanidinium chloride; 1:1 binding analysis; conditions: both partners purified
Chimera A [4] = molecular target: T4, Chimera A; test: as above; conditions: both partners purified
Target sequence in this assay (Q02297 20-241, stated change not applied): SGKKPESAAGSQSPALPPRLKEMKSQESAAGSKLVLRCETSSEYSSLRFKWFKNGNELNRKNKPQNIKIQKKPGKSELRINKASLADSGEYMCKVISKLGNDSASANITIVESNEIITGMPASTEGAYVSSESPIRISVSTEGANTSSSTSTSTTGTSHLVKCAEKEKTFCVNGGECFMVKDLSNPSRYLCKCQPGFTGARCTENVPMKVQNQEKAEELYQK

neuregulin-1 [5] = molecular target: T5, neuregulin-1 (UniProt Q02297 20-241); test: cell-based or functional assay
hepatocyte growth factor [6] = molecular target: T6, hepatocyte growth factor (UniProt P14210 32-728); test: cell-based or functional assay
PDGF BB [7] = molecular target: T7, PDGF BB (UniProt P01127 82-190); test: cell-based or functional assay
[8] = molecular target: T8, insulin-like growth factor-1 (UniProt P05019 49-118); test: cell-based or functional assay
Basic FGF [9] = molecular target: T9, Basic FGF (UniProt P09038 143-288); test: cell-based or functional assay
neuregulin-1 [10] = molecular target: T5, neuregulin-1; test: SPR; growth factor immobilised on a CM4 chip instead of the binding protein (asterisk in Table 1), binding protein or Fc fusion as analyte; HBS-P, 25 °C; regeneration with 4 M MgCl2 then 5 M guanidinium chloride; 1:1 binding analysis; conditions: both partners purified
hepatocyte growth factor [11] = molecular target: T6, hepatocyte growth factor; test: as above; conditions: both partners purified
PDGF BB [12] = molecular target: T7, PDGF BB; test: as above; conditions: both partners purified
Basic FGF [13] = molecular target: T9, Basic FGF; test: as above; conditions: both partners purified
VEGF-B = VEGF-B (UniProt P49765 22-207); test: as above; conditions: both partners purified
[14] = molecular target: T8, insulin-like growth factor-1; test: SPR; IGF binding protein or Fc fusion amine-coupled to a CM4 chip, growth factor as analyte; Biacore T100 or T200, HBS-P, BSA (0.2 mg/ml) or NaCl (0.65 M final) to reduce non-specific binding, 25 °C; 1:1 binding analysis; conditions: both partners purified
[15] = molecular target: T10, insulin-like growth factor-2 (UniProt P01344 25-91); test: as above; conditions: both partners purified
T10 construct: insulin-like growth factor 2, commercial growth factor; also called IGF2; IGF-2

IGFBP-2 = molecular target: T11, IGFBP-2 (UniProt P18065 36-325); test: as above; conditions: both partners purified
T11 construct: source: bought (commercially available, carrier-free)
T11 sequence (looked up): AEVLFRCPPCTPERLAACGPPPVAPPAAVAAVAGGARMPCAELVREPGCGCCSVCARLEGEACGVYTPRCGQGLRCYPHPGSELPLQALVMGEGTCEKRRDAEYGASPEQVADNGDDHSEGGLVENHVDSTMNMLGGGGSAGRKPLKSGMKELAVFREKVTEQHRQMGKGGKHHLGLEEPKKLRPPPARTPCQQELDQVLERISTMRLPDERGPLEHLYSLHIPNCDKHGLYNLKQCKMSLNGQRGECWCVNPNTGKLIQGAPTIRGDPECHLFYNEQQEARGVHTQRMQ

T8 sequence (P05019 49-118): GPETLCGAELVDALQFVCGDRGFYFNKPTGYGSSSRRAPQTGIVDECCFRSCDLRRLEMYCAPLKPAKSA
T9 sequence (P09038 143-288): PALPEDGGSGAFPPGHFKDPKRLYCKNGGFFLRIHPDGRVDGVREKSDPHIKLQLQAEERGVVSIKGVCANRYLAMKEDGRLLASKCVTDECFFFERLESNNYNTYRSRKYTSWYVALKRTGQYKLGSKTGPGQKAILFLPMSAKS
T6 sequence (P14210 32-728): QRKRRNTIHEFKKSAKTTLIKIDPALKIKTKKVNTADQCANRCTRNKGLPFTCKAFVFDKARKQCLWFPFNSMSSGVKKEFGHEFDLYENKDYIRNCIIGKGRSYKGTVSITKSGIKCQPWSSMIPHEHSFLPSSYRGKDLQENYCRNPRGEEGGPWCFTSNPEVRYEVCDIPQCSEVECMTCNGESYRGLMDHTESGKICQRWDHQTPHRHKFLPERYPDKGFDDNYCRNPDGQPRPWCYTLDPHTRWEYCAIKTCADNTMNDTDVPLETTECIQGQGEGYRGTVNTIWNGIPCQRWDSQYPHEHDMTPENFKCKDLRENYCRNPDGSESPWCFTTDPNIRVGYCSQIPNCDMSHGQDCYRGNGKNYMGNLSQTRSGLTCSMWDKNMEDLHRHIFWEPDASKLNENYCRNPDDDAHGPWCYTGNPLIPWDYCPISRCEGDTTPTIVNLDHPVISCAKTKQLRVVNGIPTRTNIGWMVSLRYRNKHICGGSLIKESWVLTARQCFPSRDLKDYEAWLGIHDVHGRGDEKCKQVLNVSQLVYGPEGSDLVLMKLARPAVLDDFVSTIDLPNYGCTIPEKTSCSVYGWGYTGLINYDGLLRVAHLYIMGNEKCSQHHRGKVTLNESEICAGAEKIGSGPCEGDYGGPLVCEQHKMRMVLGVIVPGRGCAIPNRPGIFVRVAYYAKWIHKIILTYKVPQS
T5 sequence (Q02297 20-241): as the sequence (Q02297 20-241, stated change not applied) above
T7 sequence (P01127 82-190): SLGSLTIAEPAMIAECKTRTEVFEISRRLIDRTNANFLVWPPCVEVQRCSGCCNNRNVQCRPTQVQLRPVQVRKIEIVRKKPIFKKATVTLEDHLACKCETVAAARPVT
T10 sequence (P01344 25-91): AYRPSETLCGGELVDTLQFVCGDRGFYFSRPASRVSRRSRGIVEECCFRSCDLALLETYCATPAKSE

B1: neuregulin-1 (ligand)
chain: SERKEGRGKGKGKKKERGSGKKPESAAGSQSPALPPRLKEMKSQESAAGSKLVLRCETSSEYSSLRFKWFKNGNELNRKNKPQNIKIQKKPGKSELRINKASLADSGEYMCKVISKLGNDSASANITIVESNEIITGMPASTEGAYVSSESPIRISVSTEGANTSSSTSTSTTGTSHLVKCAEKEKTFCVNGGECFMVKDLSNPSRYLCKCPNEFTGDRCQNYVMASFYKHLGIEFMEAEELYQK
modifications: R&D 377-HB, neuregulin extracellular domain, taken as NRG1-beta1 Ser2-Lys246; the paper prints only the catalogue number and 'extracellular domain'.
Kd (IGFBP-3): 2.09 nM
Kd (IGFBP-7): 1600 nM
Kd 56662 [1]: 4.46 nM
Kd (Chimera A [2]): 3.21 nM
Kd 56662 [3]: 4.66 nM
Kd (Chimera A [4]): 1.71 nM

B2: D3 (Fc fusion)
chain: GASSAGLGPVVRCEPCDARALAQCAPPPAVCAELVREPGCGCCLTCALSEGQPCGIYTERCGSGLRCQPSPDEARPLQALLDGRGLCVNASAVSRPAPPAPGNASESEEDRSAGSVESPSVSSTHRVSDPKFHPKGHAKVDYESQSTDTQNFSSESKRETEYGPCRREMEDTLNHLKFLNVLSPRGVHIPNCDKKGFYKKKQCRPSKGRKRGFCWCVDKYGQPLPGYTTKGKEDVHCYSMQSK
IC50 of inhibition of NRG-stimulated proliferation, Hep3B cells (neuregulin-1 [5]): 43 nM
IC50 of inhibition of NRG-stimulated proliferation, MCF-7 cells (neuregulin-1 [5]): 112 nM
IC50 of inhibition of HGF-stimulated proliferation, HUVEC (hepatocyte growth factor [6]): 56 nM
IC50 of inhibition of HGF-stimulated proliferation, Hep3B cells (hepatocyte growth factor [6]): 58 nM
IC50 of inhibition of PDGF BB-stimulated proliferation, 3T3 cells (PDGF BB [7]): 30 nM
IC50 of inhibition of IGF1-stimulated proliferation, HUVEC [8]: 7.45 nM
IC50 of inhibition of IGF1-stimulated proliferation, Hep3B cells [8]: 21 nM
IC50 of inhibition of IGF1-stimulated proliferation, MCF-7 cells [8]: 29 nM
IC50 of inhibition of bFGF-stimulated proliferation, HUVEC (Basic FGF [9]): 39 nM
IC50 of inhibition of bFGF-stimulated proliferation, Hep3B cells (Basic FGF [9]): 59 nM
IC50 of inhibition of bFGF-stimulated proliferation, MCF-7 cells (Basic FGF [9]): 26 nM
Kd (neuregulin-1 [10]): 2.62 nM
Kd (hepatocyte growth factor [11]): 2.63 nM
Kd (PDGF BB [12]): 5.29 nM
Kd (Basic FGF [13]): 3.29 nM

B3: D3 (Fc fusion)
chain: GASSAGLGPVVRCEPCDARALAQCAPPPAVCAELVREPGCGCCLTCALSEGQPCGIYTERCGSGLRCQPSPDEARPLQALLDGRGLCVNASAVSRPAPPAPGNASESEEDRSAGSVESPSVSSTHRVSDPKFHPKGHAKVDYESQSTDTQNFSSESKRETEYGPCRREMEDTLNHLKFLNVLSPRGVHIPNCDKKGFYKKKQCRPSKGRKRGFCWCVDKYGQPLPGYTTKGKEDVHCYSMQSK
modifications: Secreted Fc-fusion dimer; Fc omitted. Deletions 121-126, 166-174 and 180-185 are in 56662 precursor numbering (UniProt = construct + 2). The IGFBP-2 signal peptide is removed. / Disulfide-linked …
Kd (VEGF-B): 19.8 nM

B4: D3 (Fc fusion)
chain: GASSAGLGPVVRCEPCDARALAQCAPPPAVCAELVREPGCGCCLTCALSEGQPCGIYTERCGSGLRCQPSPDEARPLQALLDGRGLCVNASAVSRPAPPAPGNASESEEDRSAGSVESPSVSSTHRVSDPKFHPKGHAKVDYESQSTDTQNFSSESKRETEYGPCRREMEDTLNHLKFLNVLSPRGVHIPNCDKKGFYKKKQCRPSKGRKRGFCWCVDKYGQPLPGYTTKGKEDVHCYSMQSK
modifications: Secreted Fc-fusion dimer; Fc omitted. Deletions 121-126, 166-174 and 180-185 are in 56662 precursor numbering (UniProt = construct + 2). The IGFBP-2 signal peptide is removed.
Kd [14]: 0.51 nM
Kd [15]: 0.22 nM

B5: VEGF-B (ligand)
chain: PVSQPDAPGHQRKVVSWIDVYTRATCQPREVVVPLTVELMGTVAKQLVPSCVTVQRCGGCCPDDGLECVPTGQHQVRMQILMIRYPSSQLGEMSLEEHSQCECRPKKKDSAVKPDSPRPLCPRCTQHHQRPDPRTCRCRCRRRSFLRCQGRGLELNPDTCRCRKLRR
modifications: Disulfide-linked homodimer. R&D 751-VE taken as the VEGF-B167 isoform; isoform and limits are not printed.
Kd (IGFBP-2): 2.82 nM
Kd (IGFBP-3): 16.1 nM
Kd (IGFBP-7): 9.88 nM
Kd 56662 [1]: 14.3 nM
Kd (Chimera A [2]): 0.49 nM
